± gives the standard error. Fewer inactive variants are shown than the library holds.
B1: glmS ribozyme (parent)
chain: AUAAAAGCGCCAGAACUACAGAAAUGUAGUUGACGAGGAGGAGGUUUAUCGAAUUUUCGGCGGAUGCCUCCAAA

Tests used:
Conditions in all cases: with glucosamine-6-phosphate
glucosamine-6-phosphate [1] = variants of: B1; experiment: self-cleavage kobs at 40 uM GlcN6P; higher = faster cleavage; RNA array
Outline: (§1)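 Barcoded ribozyme variants, transcribed in situ by E. coli RNA polymerase on sequenced MiSeq chips, were followed via a hybridised Cy3 probe at 37 °C. Glucosamine-6-phosphate ranged from 40 μM to 10 mM in HEPES/KCl/Mg(OAc)2 buffer. kobs came from decay fits to per-tile medians, and kcat and KM from weighted Michaelis–Menten fits.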

glucosamine-6-phosphate [2] = variants of: B1; experiment: self-cleavage kobs at 640 uM GlcN6P; higher = faster cleavage; RNA array
Outline: as §1

glucosamine-6-phosphate [3] = variants of: B1; experiment: self-cleavage kobs at 2500 uM GlcN6P; higher = faster cleavage; RNA array
Outline: as §1

glucosamine-6-phosphate [4] = variants of: B1; experiment: self-cleavage kobs at 10000 uM GlcN6P; higher = faster cleavage; RNA array
Outline: as §1

glucosamine-6-phosphate [5] = variants of: B1; experiment: self-cleavage kobs at 160 uM GlcN6P; higher = faster cleavage; RNA array
Outline: as §1

Variant | self-cleavage kobs at 40 uM GlcN6P (glucosamine-6-phosphate [1]) [s⁻¹] | self-cleavage kobs at 640 uM GlcN6P (glucosamine-6-phosphate [2]) [s⁻¹] | self-cleavage kobs at 2500 uM GlcN6P (glucosamine-6-phosphate [3]) [s⁻¹] | self-cleavage kobs at 10000 uM GlcN6P (glucosamine-6-phosphate [4]) [s⁻¹] | self-cleavage kobs at 160 uM GlcN6P (glucosamine-6-phosphate [5]) [s⁻¹]
A12C C16U G41U | 6.93e-05 ± 2e-05 | 0.000163 ± 3.3e-05 | 0.000447 ± 9.6e-05 | 0.000649 ± 0.00015 | 
C10U G32C C68A | < 1e-05 |  |  |  | 
C11G A36G C67U | < 1e-05 |  |  |  | 
G13U A36U | < 1e-05 | < 1e-05 | < 1e-05 | < 1e-05 | < 1e-05
A12G U27C G29U | < 1e-05 | < 1e-05 | < 1e-05 |  | 
A12U U47C G60A | < 1e-05 |  |  | < 1e-05 | 
C10U G44A G51U | < 1e-05 |  |  |  | 
G13A A48U | < 1e-05 | < 1e-05 |  |  | < 1e-05
C11G A64U C67A | < 1e-05 |  |  | < 1e-05 | 
C11G G41C C50U | < 1e-05 |  |  |  | 
A12C U31A C34U A36C A52G C58A G63U | < 1e-05 |  |  | < 1e-05 | 
C10U U49C | < 1e-05 | < 1e-05 | < 1e-05 | < 1e-05 | 
A12G G37C U46C A53G C68U | < 1e-05 |  |  | < 1e-05 | 
C11A A33G G43U G44A U54C | < 1e-05 | < 1e-05 |  | < 1e-05 | 
A12C G13A U65C C68U | < 1e-05 |  |  |  | 
C11G G41C | < 1e-05 | < 1e-05 | < 1e-05 |  | < 1e-05
A12G G40C G43C | < 1e-05 | < 1e-05 |  | < 1e-05 | 
A12U U57C G59C | < 1e-05 | < 1e-05 | < 1e-05 |  | 
G13A A53U | < 1e-05 | 7.57e-05 ± 2.4e-05 | 0.000174 ± 4.1e-05 |  | 
A12U G32U A53G | < 1e-05 |  | 0.000144 ± 3.6e-05 | 0.000231 ± 6.4e-05 | 
C11G A36C U55C | < 1e-05 | < 1e-05 |  |  | 
C10U G13C A36C | < 1e-05 |  |  |  | 

Variant | self-cleavage kobs at 40 uM GlcN6P (glucosamine-6-phosphate [1]) [s⁻¹] | self-cleavage kobs at 640 uM GlcN6P (glucosamine-6-phosphate [2]) [s⁻¹] | self-cleavage kobs at 2500 uM GlcN6P (glucosamine-6-phosphate [3]) [s⁻¹] | self-cleavage kobs at 10000 uM GlcN6P (glucosamine-6-phosphate [4]) [s⁻¹] | self-cleavage kobs at 160 uM GlcN6P (glucosamine-6-phosphate [5]) [s⁻¹]
G13A G62A | < 1e-05 | < 1e-05 | < 1e-05 | < 1e-05 | < 1e-05
G13C G43U A52U | < 1e-05 | < 1e-05 | < 1e-05 | < 1e-05 | 
C11U G29C C34A G37U | < 1e-05 | < 1e-05 |  |  | 
A12C C16G A36U | < 1e-05 |  |  | < 1e-05 | 
C11A G41A C50G G59U | < 1e-05 |  |  | < 1e-05 | 
A12U C34G G40C C50A | < 1e-05 | < 1e-05 | < 1e-05 |  | < 1e-05
A12G U57A | < 1e-05 |  |  | 4.27e-05 ± 9.1e-06 | 
G13C G29U G32A U54G U65C C68G U69G | 0.00014 ± 4.1e-05 | 0.000623 ± 0.00016 | 9.24e-05 ± 2.8e-05 | 0.000151 ± 3.1e-05 | 0.000198 ± 5.6e-05
A12U A64G | 0.000953 ± 0.00018 | 0.00536 ± 0.0011 | 0.0169 ± 0.0043 | 0.052 ± 0.015 | 0.0025 ± 0.00063
C11U U45G C50A | < 1e-05 |  |  |  | 
C11G G66U | < 1e-05 |  | < 1e-05 |  | 
C10U G41U | < 1e-05 | < 1e-05 | < 1e-05 | < 1e-05 | < 1e-05
G13A G37C | < 1e-05 | < 1e-05 | < 1e-05 | < 1e-05 | < 1e-05
C11U G41C | < 1e-05 |  |  |  | < 1e-05
C10U G38A G66U | < 1e-05 |  |  |  | 
G13C U30C A36G G41C C70A | < 1e-05 | < 1e-05 | < 1e-05 | < 1e-05 | < 1e-05
C10U G29U U56G | < 1e-05 |  |  | < 1e-05 | 
C11G U31C C34G U46A | < 1e-05 |  |  | < 1e-05 | 
C11U C58G C68U | 7.67e-05 ± 2.5e-05 | 0.000262 ± 7e-05 |  | 5.66e-05 ± 1.6e-05 | 0.000349 ± 9.1e-05
C11U C50A C70G | 9.07e-05 ± 2.5e-05 | 0.000365 ± 8.8e-05 | 0.000173 ± 6e-05 | 5.4e-05 ± 1.6e-05 | 
A12U A15U A42G | 0.000666 ± 0.00019 | 0.00157 ± 0.00069 | 0.00849 ± 0.0038 |  | 
G13A C50A U69G | 4.48e-05 ± 2.2e-05 |  |  |  | 
